Data on one molecule can be found in article PMC3702667.

This data set has as its target RNA polymerase II;RECQL5 1-620 D157A (human;human, UniProt P24928;P30876;P19387;O15514;P19388;P61218;P62487;P52434;P36954;P62875;P52435;P53 …, |D157A). The data set can be described thus: cryo-EM.

Chain of RNA polymerase II;RECQL5 1-620 D157A (O94762 1-620 D157A, one chain of several): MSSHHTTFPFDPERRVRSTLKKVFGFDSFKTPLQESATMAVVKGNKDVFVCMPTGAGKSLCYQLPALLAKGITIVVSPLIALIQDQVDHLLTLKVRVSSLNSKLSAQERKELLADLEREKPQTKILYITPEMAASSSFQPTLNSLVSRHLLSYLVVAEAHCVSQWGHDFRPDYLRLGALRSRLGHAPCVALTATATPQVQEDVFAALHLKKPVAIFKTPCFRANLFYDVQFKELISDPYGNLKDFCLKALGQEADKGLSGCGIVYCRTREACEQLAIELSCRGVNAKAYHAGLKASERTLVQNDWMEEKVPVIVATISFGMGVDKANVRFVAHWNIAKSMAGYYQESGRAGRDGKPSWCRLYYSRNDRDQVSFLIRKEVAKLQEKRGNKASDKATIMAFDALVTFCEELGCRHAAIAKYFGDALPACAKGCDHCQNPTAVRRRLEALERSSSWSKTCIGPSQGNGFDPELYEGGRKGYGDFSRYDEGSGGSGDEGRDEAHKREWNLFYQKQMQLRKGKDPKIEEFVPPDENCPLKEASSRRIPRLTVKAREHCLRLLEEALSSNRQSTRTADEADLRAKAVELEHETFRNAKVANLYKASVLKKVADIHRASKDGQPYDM

B1: artificial transcription bubble (template DNA, nontemplate DNA, RNA) (mixed)
DNA 1: CTCAAGTACTTACGCCTGGTCATTACTA
DNA 2: TAGTAAACTAGTATTGAAAGTACTTGAGCTTAGACAGCATGTC
RNA: UAUAUGCAUAAAGACCAGGC
Regarding B1, the binding result was “binds”.
